Measurements from patent EP1959993B1.
Blank lines part the entries; values can stand above or below the substance they belong to.

What was measured:
[1] = target: N-DDD1-Fab-hMN-14 (human); assay: equilibrium SE-HPLC
[2] = target: C-DDD1-Fab-hMN-14 (human); assay: equilibrium SE-HPLC
[3] = target: recombinant human RIIα (human) (UniProt P13861); assay: equilibrium SE-HPLC
[4] = target: C-DDD1-Fab-hMN-14 (human); assay: SE-HPLC of the mixture with hMN14-Fab-DDD1; h679-Fab-AD2 not reduced
[5] = target: C-DDD1-Fab-hMN-14 (human); assay: SE-HPLC of the mixture with hMN14-Fab-DDD1; h679-Fab-AD2 reduced with TCEP
[6] = target: fusion protein containing the A3B3 domain of CEA (UniProt P06731); assay: competitive ELISA against HRP-conjugated hMN-14 IgG on the A3B3 fusion protein
CEA = CEA (UniProt P06731); assay: SE-HPLC of 125I-TF2 mixed with a 20-fold molar excess of CEA

Chain of UniProt P13861 (P13861 whole entry): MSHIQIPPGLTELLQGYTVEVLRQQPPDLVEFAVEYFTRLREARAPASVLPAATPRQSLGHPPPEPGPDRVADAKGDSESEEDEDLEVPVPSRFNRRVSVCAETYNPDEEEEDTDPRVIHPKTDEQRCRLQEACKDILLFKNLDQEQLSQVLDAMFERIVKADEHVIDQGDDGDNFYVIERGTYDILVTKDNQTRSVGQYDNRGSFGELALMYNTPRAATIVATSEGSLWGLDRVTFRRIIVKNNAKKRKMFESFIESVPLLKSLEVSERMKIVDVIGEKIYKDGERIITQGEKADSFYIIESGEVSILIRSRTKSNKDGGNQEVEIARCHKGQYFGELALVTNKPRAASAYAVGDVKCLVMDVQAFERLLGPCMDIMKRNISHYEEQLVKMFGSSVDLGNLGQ

Kd [1]: 8 nM | Kd [2]: 15 nM | Kd [3]: 30 nM
Substance: h679-Fab-AD1

fraction reactive [4]: 0.33 | percent activity [5]: 100%
Substance: h679-Fab-AD2

avidity, fold against TF1 [6]: 2 fold | percent shifted to a high molecular weight species (CEA): 95%
Substance: TF2 (bispecific antibody)
